Assay results published in patent US20230272099A1 (Chugai, published 2023).

T1: human FcgRIIa type H extracellular domain (human, UniProt P12318 34-217)
T1 construct: extracellular domain; also called hFcgRIIaH
T1 sequence (looked up): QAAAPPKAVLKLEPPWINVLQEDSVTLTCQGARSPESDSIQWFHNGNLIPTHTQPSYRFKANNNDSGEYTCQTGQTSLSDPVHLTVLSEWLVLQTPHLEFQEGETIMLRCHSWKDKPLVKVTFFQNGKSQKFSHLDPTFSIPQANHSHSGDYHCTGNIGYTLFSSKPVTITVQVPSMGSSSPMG

T2: human FcgRIIa type R extracellular domain (human, UniProt P12318 34-217)
T2 construct: extracellular domain; also called hFcgRIIaR
T2 sequence (looked up): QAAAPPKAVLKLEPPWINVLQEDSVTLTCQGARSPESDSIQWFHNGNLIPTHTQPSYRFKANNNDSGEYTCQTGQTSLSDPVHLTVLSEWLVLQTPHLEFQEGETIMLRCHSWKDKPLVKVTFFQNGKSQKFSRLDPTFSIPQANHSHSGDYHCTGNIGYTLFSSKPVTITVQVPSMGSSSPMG

T3: human FcgRIIb extracellular domain (human, UniProt P31994 43-217)
T3 construct: extracellular domain; also called hFcgRIIb
T3 sequence (looked up): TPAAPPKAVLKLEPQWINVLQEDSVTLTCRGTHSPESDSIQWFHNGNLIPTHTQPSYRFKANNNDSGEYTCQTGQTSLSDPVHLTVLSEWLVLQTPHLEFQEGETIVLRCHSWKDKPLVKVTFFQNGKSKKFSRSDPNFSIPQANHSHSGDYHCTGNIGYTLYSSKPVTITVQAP


Key:
[1] = molecular target: T4, human FcgRIa extracellular domain (human, UniProt P12314 16-292); assay: SPR 25C
T4 construct: extracellular domain; also called hFcgRIa
Procedure: (§1) Biacore T200 (GE Healthcare) was used to evaluate the binding activity to the respective human Fcγ receptor (hereafter referred to as FcγR). Measurement was performed at 25° C. using 50 mM phosphate, 150 mM NaCl, 0.05 w/v %-P20, pH 7.4 as buffer. About 1000 RU of antibody was captured using a sensor chip immobilized with CaptureSelect™ Human Fab-lambda Kinetics Biotin Conjugate (Thermo Fisher Scientific) as a molecule for ligand capturing. Human FcγR was diluted to 8 nM for FcγRIa and 1000 nM for other FcγR in the measurement buffer, and it was interacted to the captured antibody. The binding activity of each antibody to FcγR was assessed by calculating the binding amount of FcγR (RU) per unit amount of antibody using Biacore T200 Evaluation Software 2.0.

[2] = molecular target: T1, human FcgRIIa type H extracellular …; assay: SPR 25C
Procedure: as §1

[3] = molecular target: T2, human FcgRIIa type R extracellular …; assay: SPR 25C
Procedure: as §1

[4] = molecular target: T3, human FcgRIIb extracellular domain; assay: SPR 25C
Procedure: as §1

[5] = molecular target: T5, human FcgRIIIa F158 extracellular domain (human, UniProt P08637 17-208); assay: SPR 25C
T5 construct: extracellular domain; also called hFcgRIIIaF
Procedure: as §1

[6] = molecular target: T6, human FcgRIIIa V158 extracellular domain (human, UniProt P08637 17-208); assay: SPR 25C
T6 construct: extracellular domain; also called hFcgRIIIaV
Procedure: as §1

human FcRn = human FcRn (human, UniProt P55899 24-290; P61769 21-119); assay: SPR 25C pH 6.0, steady state
Procedure: Biacore T200 (GE Healthcare) was used to assess the binding activity to human FcRn. Measurement was performed at 25° C. using 50 mM phosphate, 150 mM NaCl, 0.05 w/v %-P20, pH 6.0 as buffer. Human FcRn proteins used for this determination were prepared by the procedure described in WO2010107110. About 400 RU of antibody was captured using a sensor chip immobilized with CaptureSelect™ Human Fab-lambda Kinetics Biotin Conjugate (Thermo Fisher Scientific) as a molecule for ligand capturing, followed by the binding of human FcRn diluted in measuring buffer. The activity of the respective antibodies to bind FcRn was assessed by calculating KD(mol/L) by the steady-state model using Biacore T200 Evaluation Software 2.0.

T6 sequence (P08637 17-208 F176V): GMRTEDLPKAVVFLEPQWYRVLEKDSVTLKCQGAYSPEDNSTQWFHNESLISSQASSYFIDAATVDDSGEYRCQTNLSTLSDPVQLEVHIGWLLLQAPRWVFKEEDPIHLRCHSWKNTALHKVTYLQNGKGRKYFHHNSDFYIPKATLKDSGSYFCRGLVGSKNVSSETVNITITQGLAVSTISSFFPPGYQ
T4 sequence (P12314 16-292): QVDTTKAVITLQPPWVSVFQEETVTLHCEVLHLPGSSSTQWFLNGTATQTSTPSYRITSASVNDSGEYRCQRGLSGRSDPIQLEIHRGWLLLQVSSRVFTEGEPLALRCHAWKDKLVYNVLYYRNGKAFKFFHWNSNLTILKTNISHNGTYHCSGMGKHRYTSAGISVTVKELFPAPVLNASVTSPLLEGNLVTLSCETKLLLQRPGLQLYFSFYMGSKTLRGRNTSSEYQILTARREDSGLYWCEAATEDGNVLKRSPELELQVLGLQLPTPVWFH
T5 sequence (P08637 17-208): as the sequence (P08637 17-208 F176V) above, with V160F counted along it

Binder	binding per 1RU antibody [1] [RU]	relative binding (A375-G1T3/B167-Lamlib=1) [1]	binding per 1RU antibody [2] [RU]	relative binding (A375-G1T3/B167-Lamlib=1) [2]	binding per 1RU antibody [3] [RU]	relative binding (A375-G1T3/B167-Lamlib=1) [3]	binding per 1RU antibody [4] [RU]	relative binding (A375-G1T3/B167-Lamlib=1) [4]	binding per 1RU antibody [5] [RU]	relative binding (A375-G1T3/B167-Lamlib=1) [5]	binding per 1RU antibody [6] [RU]	relative binding (A375-G1T3/B167-Lamlib=1) [6]	Kd (human FcRn) [nM]
A375-MY201a/B167-Lamlib (antibody, human IgG1, lambda, copies: 2 + 2) heavy: EVQLVESGGGLVKPGGSLRLSCAASGFTFSTFTMNWVRQAPGKGLEWVSSISSKSTYIEYADSFKVRFTISRDNAKNSLYLQMNSLRAEDTAVYYCARYGAKNFLNWVFDYWGQGTLVTVSSASTKGPSVFPLAPSSKSTSGGTAALGCLVKDYFPEPVTVSWNSGALTSGVHTFPAVLQSSGLYSLSSVVTVPSSSLGTQTYICNVNHKPSNTKVDKRVEPKSCDKTHTCPPCPAPELLNGPSVFLFPPKPKDTLMISRTPEVTCVVVDVSDEDPEVKFNWYVDGVEVHNAKTKPREEQYNSTYRVVSVLTVLHQDWLNGKEYKCKVSNKALPKPIEKTISKAKGQPREPQVYTLPPSREEMTKNQVSLTCLVKGFYPSDIAVEWESNGQPENNYKTTPPVLDSDGSFFLYSKLTVDKSRWQQGNVFSCSVMHEALHNHYTQKSLSLSP light: QSALTQPPSASGSPGQTVTISCTGTRYDVGYYEYVSWYQQHPGKAPKLMIYETSKRLSGVPDRFSGSKSGNTASLTVSGLQAEDEADYYCSSYRYEHQVSFGGGTKLTVLGQPKAAPSVTLFPPSSEELQANKATLVCLISDFYPGAVTVAWKADSSPVKAGVETTTPSKQSNNKYAASSYLSLTPEQWKSHRSYSCQVTHEGSTVEKTVAPTECS	0.0396	0.49	0.0534	0.94	0.0338	0.73	0.0401	3.66	0.0007	0.04	0.0024	0.03	1190
A375-MY518/B167-Lamlib (antibody, human IgG1, lambda, copies: 2 + 2) heavy: EVQLVESGGGLVKPGGSLRLSCAASGFTFSTFTMNWVRQAPGKGLEWVSSISSKSTYIEYADSFKVRFTISRDNAKNSLYLQMNSLRAEDTAVYYCARYGAKNFLNWVFDYWGQGTLVTVSSASTKGPSVFPLAPSSKSTSGGTAALGCLVKDYFPEPVTVSWNSGALTSGVHTFPAVLQSSGLYSLSSVVTVPSSSLGTQTYICNVNHKPSNTKVDKKVEPKSCDKTHTCPPCPAPELWNGPSVFLFPPKPKDTLMISRTPEVTCVVVDVSDEDPEVKFNWYVDGVEVHNAKTKPREELYNSTYRVVSVLTVLHQDWLNGKEYKCKVSNTALPKPIEKTISKAKGQPREPQVYTLPPSREEMTKNQVSLTCLVKGFYPSDIAVEWESNGQPENNYKTTPPVLDSDGSFFLYSKLTVDKSRWQQGNVFSCSVMHEALHNHYTQKSLSLSP light: QSALTQPPSASGSPGQTVTISCTGTRYDVGYYEYVSWYQQHPGKAPKLMIYETSKRLSGVPDRFSGSKSGNTASLTVSGLQAEDEADYYCSSYRYEHQVSFGGGTKLTVLGQPKAAPSVTLFPPSSEELQANKATLVCLISDFYPGAVTVAWKADSSPVKAGVETTTPSKQSNNKYAASSYLSLTPEQWKSHRSYSCQVTHEGSTVEKTVAPTECS	0.002	0.02	0.0465	0.82	0.046	0.99	0.0482	4.4	0.0009	0.04	0.0015	0.02	1270
A375-TT11/B167-Lamlib (antibody, human IgG1, lambda, copies: 2 + 2) heavy: EVQLVESGGGLVKPGGSLRLSCAASGFTFSTFTMNWVRQAPGKGLEWVSSISSKSTYIEYADSFKVRFTISRDNAKNSLYLQMNSLRAEDTAVYYCARYGAKNFLNWVFDYWGQGTLVTVSSASTKGPSVFPLAPSSKSTSGGTAALGCLVKDYFPEPVTVSWNSGALTSGVHTFPAVLQSSGLYSLSSVVTVPSSSLGTQTYICNVNHKPSNTKVDKKVEPKSCDKTHTCPPCPAPEYLGGDSVFLFPPKPKDVLMISRTPEVTCVVVDVSHEDPEVKFNWYVDGVEVHNAKTKPREEQYNSTYRVVSVLPVLHQDWLNGKEYKCKVSNKALPKPIEKTISKAKGQPREPQVYTLPPSREEMTKNQVSLTCLVKGFYPSDIAVEWESNGQPENNYKTTPPVLDSDGSFFLYSKLTVDKSRWQQGNVFSCSVMHEALHNHYTQKSLSLSP light: QSALTQPPSASGSPGQTVTISCTGTRYDVGYYEYVSWYQQHPGKAPKLMIYETSKRLSGVPDRFSGSKSGNTASLTVSGLQAEDEADYYCSSYRYEHQVSFGGGTKLTVLGQPKAAPSVTLFPPSSEELQANKATLVCLISDFYPGAVTVAWKADSSPVKAGVETTTPSKQSNNKYAASSYLSLTPEQWKSHRSYSCQVTHEGSTVEKTVAPTECS	–	–	0.002	0.03	–	–	0.0477	4.35	-0.0009	-0.04	-0.001	-0.01	1560

More lines, in order of falling Kd (human FcRn), values ahead:

binding per 1RU antibody [1] [RU]	relative binding (A375-G1T3/B167-Lamlib=1) [1]	binding per 1RU antibody [2] [RU]	relative binding (A375-G1T3/B167-Lamlib=1) [2]	binding per 1RU antibody [3] [RU]	relative binding (A375-G1T3/B167-Lamlib=1) [3]	binding per 1RU antibody [4] [RU]	relative binding (A375-G1T3/B167-Lamlib=1) [4]	binding per 1RU antibody [5] [RU]	relative binding (A375-G1T3/B167-Lamlib=1) [5]	binding per 1RU antibody [6] [RU]	relative binding (A375-G1T3/B167-Lamlib=1) [6]	Kd (human FcRn) [nM]	Binder
0.0813	1	0.0567	1	0.0463	1	0.011	1	0.0213	1	0.07	1	1270	A375-G1T3/B167-Lamlib (antibody, human IgG1, lambda, copies: 2 + 2) heavy: not shown light: QSALTQPPSASGSPGQTVTISCTGTRYDVGYYEYVSWYQQHPGKAPKLMIYETSKRLSGVPDRFSGSKSGNTASLTVSGLQAEDEADYYCSSYRYEHQVSFGGGTKLTVLGQPKAAPSVTLFPPSSEELQANKATLVCLISDFYPGAVTVAWKADSSPVKAGVETTTPSKQSNNKYAASSYLSLTPEQWKSHRSYSCQVTHEGSTVEKTVAPTECS
0.004	0.05	0.0328	0.58	0.0335	0.72	0.0313	2.85	0.0007	0.03	0.0011	0.02	1180	A375-MY201aPh/B167-Lamlib (antibody, human IgG1, lambda, copies: 2 + 2) heavy: EVQLVESGGGLVKPGGSLRLSCAASGFTFSTFTMNWVRQAPGKGLEWVSSISSKSTYIEYADSFKVRFTISRDNAKNSLYLQMNSLRAEDTAVYYCARYGAKNFLNWVFDYWGQGTLVTVSSASTKGPSVFPLAPSSKSTSGGTAALGCLVKDYFPEPVTVSWNSGALTSGVHTFPAVLQSSGLYSLSSVVTVPSSSLGTQTYICNVNHKPSNTKVDKRVEPKSCDKTHTCPPCPAPELWNGPSVFLFPPKPKDTLMISRTPEVTCVVVDVSDEDPEVKFNWYVDGVEVHNAKTKPREEQYNSTYRVVSVLTVLHQDWLNGKEYKCKVSNKALPKPIEKTISKAKGQPREPQVYTLPPSREEMTKNQVSLTCLVKGFYPSDIAVEWESNGQPENNYKTTPPVLDSDGSFFLYSKLTVDKSRWQQGNVFSCSVMHEALHNHYTQKSLSLSP light: QSALTQPPSASGSPGQTVTISCTGTRYDVGYYEYVSWYQQHPGKAPKLMIYETSKRLSGVPDRFSGSKSGNTASLTVSGLQAEDEADYYCSSYRYEHQVSFGGGTKLTVLGQPKAAPSVTLFPPSSEELQANKATLVCLISDFYPGAVTVAWKADSSPVKAGVETTTPSKQSNNKYAASSYLSLTPEQWKSHRSYSCQVTHEGSTVEKTVAPTECS
